In US20230322906A1:
Substitutions are numbered along the chain they refer to.

B1: 4513-11 (antibody, V domains shown)
VH: QVQLAQSGAEVKKPGSSVKVSCHVSGGTFSTYAINWVRQAPGHGPEWMGRITPISGATDYAQKFQARITISADESTSAAYLEVRTLRSDDTAVYYCARVGQPKFFERSSDGEHFQHWGQGTLVTVSS
VL: DIQMTQSPSTLSASVGDRTTITCRASQNIDKWLAWYQQKPGKAPTVLIFKASTLESGVPSRFSGSSSGTEFTLTIDNLQPEDSATYFCHQYSRYPWTFGQGTKVELK
B2: 4487-4 (antibody, V domains shown)
V domain 1: QVQLVQSGTELTKPGMSVKISCRASGTTFTRPYVHWVRQAPGQGLEWMGMINPTGVNVFSAQKFQGRVTMTRQTSTHTSFLELVSLTGDDTAVYYCATSSGVVSLRSAFDIWGQGTILIVSS
V domain 2: QSALSQPASVSGSLGQSITISCSGVGSDAVTYTVVSWYQQHPTKAPKIIISDGDKRPSGVSSRFSGSKSGNTAFLRISGLQTDDEALYYCCSYVGSNTWVFGGGTTVTVL
B3: 4513-14 (antibody, V domains shown)
VH: QVQLVQSGREVKKFGSSVRVSCKASGGSFDTYAISWVRQAPGQGLEWMGQITPMFGTSHMSQRFQGRLTIDTDDSTGTVFMDMRGLRTEDSATYYCAKDWSFDDDGGAYVPSAMDVWGQGTTVIVSS
VL: EIVLTQSPGTLSVSPGERATLSCKASQSISSSSLAWYRQTPGQTPTLLIYGTSTRATGIPDRFSGRGSGTDFTLTITNVKPEDFAVYYCQQYGSSPFTFGPGTRLDFR
B4: 4487-5 (antibody, V domains shown)
VH: QMQLVQSGPEVRKPGSSVKVSCKASGGTFDNSAITWVRQAPGQGLEWMGGIIPFVGAAAYAQRFLGRATITADASTTSSYLELRGLTSDDTGVYFCARDGLRLNFYYYGMDVWGQGTPIIVSS
VL: QIVLTQSPGTLSLSPGDTATLSCRASQRVTHTHLAWYQQKPGQPPRLLIYATSQRATGIPDRFRGSGSGRDFTLTIASLEPEDFAVYYCQQNGESPRMFGQGTKLDVK
B5: 4513-12 (antibody, V domains shown)
VH: QLQLQESGPGLVKPSETLALTCSVSGGSIFSSNYYWAWIRQPPGKGLEWMGSVYFSGTTFYNPSLKSRVIVSVDTAKNQFSLKLNSVSAADTAIYYCARDVRMRSGRPRQYCMDVWGKGTTVTVSS
VL: EVVLTQSPGTLSLSPGERATLSCRASQSVNSIYLAWYQQKPGQAPRLLIYGASNRAAGIPDRFSGSGSGTDFTLTIDRLEPEDFAVYYCQQYDTSPAVTFGPGTKVEIK
B6: 4591-2 (antibody, V domains shown)
VH: QVQLQQWGAGLLKPSETLSLTCDVSGGSFSDFYWSWVRQSPGKGLEWIGDINHSGSSNYIPSLDGRVTISVDTSRSQFSLNLTSVTAADTAIYFCARKVWPFNGMDVWSQGTTVTVSS
VL: ATQLTQSPSFLSASVGDRVTITCRASQGIRNFLAWYQQKPGKAPNLLIYAASTLQSGVPSRFAGSGSGTEFTLTINNVQPEDFATYYCQQLTNYATFGQGTKLEIQ
B7: 6420-35 (antibody, V domains shown)
VH: EVQLVESGGDLVQPGGSLRLSCLGSGFDFRTYGMNWVRQAPGKGLEWVSYISSTSSAIYYTDSIEGRFTISRDNGKNLLSLQMSSLRDEDTAVYYCARGGSLWFGREFHAMDVWGRGTTVTVSS
VL: QAVVTQEPSLTVSPGGTVTLTCGSSTGAVTSDHYPYWFQQKPGQAPRTLIYDTINRHSWAPARFSASLLGGKAALTLSGAQPEDEAEYYCLLSYSGARRVFGGGTKLTVL
B8: 6420-48.1 (antibody, V domains shown)
VH: EVQLVESGGGLVQPGGSLRLSCAASGFTFNTYEMNWVRQAPGKGLEWVSYISGTGNNIYYADSVKGRFTISRDNAKNSLYLQMDNLRAEDTAVYYCARGGQLWFGERLYFHFWGQGTLVAVSS
VL: DIQMSQSPSSLSASVGDRVTITCRASQSIGNNLNWYQQKPGKAPNLLIYAASNLQSGVPSRFSGSGSGTDFSLTISSLQPEDFTIYYCQQSFSTPITFGQGTRLEIK
B9: 6420-48.2 (antibody, V domains shown)
VH: EVQLVESGGGLVRPGGSLRLSCAASGFTFNTYEMNWVRQAPGKGLEWLSYISSTGNNIFYADSVKGRFTISRDNAKNSLYLQMNNVRTDDTALYYCARGGQLWFGERLNFQHWGQGTQVTVSS
VL: DIQMTQSPSSLSASVGDRVTITCRASQTISNNLNWYQQKPGKAPKFLIYSVSVLQSGVPSRFSGSGSGTDFTLTITSLQPEDFATYYCQQSHSTPLTFGQGTRLEIK
B10: 6420-233.1 (antibody, V domains shown)
VH: EVQLVESGGALVQPGGSLRLSCAASGFNFISYGMNWVRQAPGKGLEWISYISSASNTIYYADSVKGRFTISRDNAKNSLYLQMTSLRDGDSALYYCARDIVTIFFRGRSQHAFSVWGQGTAVAVSS
VL: SYVLTQPPSVSVAPGQTARITCGGNNIGSKNVHWYQQKPGQAPVLVVYDNSDRPSGVPERFSGSNSGNTATLTITRVEAGDEADYYCQVWDISSDHQVFGGGTKLTAL
B11: 6420-233.2 (antibody, V domains shown)
VH: EVQLVESGGGLVQPGGSLRLSCAASGFDFRTYSMNWVRQAPGKGLEWLSYISSTSATIYSADSVKGRFTISRDNAKNSVYLQMNSLRVDDTAVYFCARERITVFFRGRSQHASNVWGQGTMVTVSS
VL: B10 VL with P7A, N25D, S29N, V32A, V57I, T75S, Y86F, I92S, A107V

Each binder was assayed against trimeric Env protein (HIV-1 Env gp140 trimer antigens of the panel: ZM197, CNE55, CZA97) (assay: ELISA (AUC) on HIV-1 Env gp140 trimer and gp120 monomer panel).
B1 was tested, and the binding to trimeric Env protein relative to monomeric Env protein was greater than 3 times.
B2 gave a binding to trimeric Env protein relative to monomeric Env protein greater than 3 times.
Work on B3 yielded a binding to trimeric Env protein relative to monomeric Env protein greater than 3 times.
B4 showed a binding to trimeric Env protein relative to monomeric Env protein greater than 3 times.
With B5 the binding to trimeric Env protein relative to monomeric Env protein was greater than 3 times.

Each binder was assayed against BG505.SOSIP CD4bs variants (BG505.SOSIP.D368R, BG505.SOSIP.N279K, BG505.SOSIP.D368R/N279K (DKO)) (assay: ELISA AUC normalized to BG505.SOSIP.backbone).
With B6 the fold decrease in binding against BG505.SOSIP Env was greater than 2 fold.
B7 was tested, and the fold decrease in binding against BG505.SOSIP Env was greater than 2 fold.
With B8 the fold decrease in binding against BG505.SOSIP Env was greater than 2 fold.
With B9 the fold decrease in binding against BG505.SOSIP Env was greater than 2 fold.
For B10, the fold decrease in binding against BG505.SOSIP Env was greater than 2 fold.
Work on B11 yielded a fold decrease in binding against BG505.SOSIP Env greater than 2 fold.
